Laboratory results: US20180162923A1 (UNIVERSITY OF BRITISH COLUMBIA, published 2018)

B1: AP-SEMA3C (ligand, UniProt Q99985 21-751, looked up)
chain: GSSQPQARVYLTFDELRETKTSEYFSLSHHPLDYRILLMDEDQDRIYVGSKDHILSLNINNISQEALSVFWPASTIKVEECKMAGKDPTHGCGNFVRVIQTFNRTHLYVCGSGAFSPVCTYLNRGRRSEDQVFMIDSKCESGKGRCSFNPNVNTVSVMINEELFSGMYIDFMGTDAAIFRSLTKRNAVRTDQHNSKWLSEPMFVDAHVIPDGTDPNDAKVYFFFKEKLTDNNRSTKQIHSMIARICPNDTGGLRSLVNKWTTFLKARLVCSVTDEDGPETHFDELEDVFLLETDNPRTTLVYGIFTTSSSVFKGSAVCVYHLSDIQTVFNGPFAHKEGPNHQLISYQGRIPYPRPGTCPGGAFTPNMRTTKEFPDDVVTFIRNHPLMYNSIYPIHKRPLIVRIGTDYKYTKIAVDRVNAADGRYHVLFLGTDRGTVQKVVVLPTNNSVSGELILEELEVFKNHAPITTMKISSKKQQLYVSSNEGVSQVSLHRCHIYGTACADCCLARDPYCAWDGHSCSRFYPTGKRRSRRQDVRHGNPLTQCRGFNLKAYRNAAEIVQYGVKNNTTFLECAPKSPQASIKWLLQKDKDRRKEVKLNERIIATSQGLLIRSVQGSDQGLYHCIATENSFKQTIAKINFKVLDSEMVAVVTDKWSPWTWASSVRALPFHPKDIMGAFSHSEMQMINQYCKDTRQQHQQGDESQKMRGDYGKLKALINSRKSRNRRNQLPES
notes: Used as conditioned medium from 293T cells; also called AP-SEMA 3C construct; not shown: alkaline phosphatase tag of the APTag vector

What was measured:
DU145 cells = assay: flow cytometry on DU145 cells, rhIgGFc at 100 nM, detected with anti-IgGFc-specific PE secondary antibody (control)
PLEXIN B1 [1] = biological target: T1, PLEXIN B1 (human, UniProt O43157 20-2135); assay: alkaline phosphatase ligand binding assay on DU145 cells B1 siRNA1 against scramble siRNA; APTag background subtracted
T1 construct: whole, on cells; Endogenous receptor on cells
T1 sequence (O43157 20-2135): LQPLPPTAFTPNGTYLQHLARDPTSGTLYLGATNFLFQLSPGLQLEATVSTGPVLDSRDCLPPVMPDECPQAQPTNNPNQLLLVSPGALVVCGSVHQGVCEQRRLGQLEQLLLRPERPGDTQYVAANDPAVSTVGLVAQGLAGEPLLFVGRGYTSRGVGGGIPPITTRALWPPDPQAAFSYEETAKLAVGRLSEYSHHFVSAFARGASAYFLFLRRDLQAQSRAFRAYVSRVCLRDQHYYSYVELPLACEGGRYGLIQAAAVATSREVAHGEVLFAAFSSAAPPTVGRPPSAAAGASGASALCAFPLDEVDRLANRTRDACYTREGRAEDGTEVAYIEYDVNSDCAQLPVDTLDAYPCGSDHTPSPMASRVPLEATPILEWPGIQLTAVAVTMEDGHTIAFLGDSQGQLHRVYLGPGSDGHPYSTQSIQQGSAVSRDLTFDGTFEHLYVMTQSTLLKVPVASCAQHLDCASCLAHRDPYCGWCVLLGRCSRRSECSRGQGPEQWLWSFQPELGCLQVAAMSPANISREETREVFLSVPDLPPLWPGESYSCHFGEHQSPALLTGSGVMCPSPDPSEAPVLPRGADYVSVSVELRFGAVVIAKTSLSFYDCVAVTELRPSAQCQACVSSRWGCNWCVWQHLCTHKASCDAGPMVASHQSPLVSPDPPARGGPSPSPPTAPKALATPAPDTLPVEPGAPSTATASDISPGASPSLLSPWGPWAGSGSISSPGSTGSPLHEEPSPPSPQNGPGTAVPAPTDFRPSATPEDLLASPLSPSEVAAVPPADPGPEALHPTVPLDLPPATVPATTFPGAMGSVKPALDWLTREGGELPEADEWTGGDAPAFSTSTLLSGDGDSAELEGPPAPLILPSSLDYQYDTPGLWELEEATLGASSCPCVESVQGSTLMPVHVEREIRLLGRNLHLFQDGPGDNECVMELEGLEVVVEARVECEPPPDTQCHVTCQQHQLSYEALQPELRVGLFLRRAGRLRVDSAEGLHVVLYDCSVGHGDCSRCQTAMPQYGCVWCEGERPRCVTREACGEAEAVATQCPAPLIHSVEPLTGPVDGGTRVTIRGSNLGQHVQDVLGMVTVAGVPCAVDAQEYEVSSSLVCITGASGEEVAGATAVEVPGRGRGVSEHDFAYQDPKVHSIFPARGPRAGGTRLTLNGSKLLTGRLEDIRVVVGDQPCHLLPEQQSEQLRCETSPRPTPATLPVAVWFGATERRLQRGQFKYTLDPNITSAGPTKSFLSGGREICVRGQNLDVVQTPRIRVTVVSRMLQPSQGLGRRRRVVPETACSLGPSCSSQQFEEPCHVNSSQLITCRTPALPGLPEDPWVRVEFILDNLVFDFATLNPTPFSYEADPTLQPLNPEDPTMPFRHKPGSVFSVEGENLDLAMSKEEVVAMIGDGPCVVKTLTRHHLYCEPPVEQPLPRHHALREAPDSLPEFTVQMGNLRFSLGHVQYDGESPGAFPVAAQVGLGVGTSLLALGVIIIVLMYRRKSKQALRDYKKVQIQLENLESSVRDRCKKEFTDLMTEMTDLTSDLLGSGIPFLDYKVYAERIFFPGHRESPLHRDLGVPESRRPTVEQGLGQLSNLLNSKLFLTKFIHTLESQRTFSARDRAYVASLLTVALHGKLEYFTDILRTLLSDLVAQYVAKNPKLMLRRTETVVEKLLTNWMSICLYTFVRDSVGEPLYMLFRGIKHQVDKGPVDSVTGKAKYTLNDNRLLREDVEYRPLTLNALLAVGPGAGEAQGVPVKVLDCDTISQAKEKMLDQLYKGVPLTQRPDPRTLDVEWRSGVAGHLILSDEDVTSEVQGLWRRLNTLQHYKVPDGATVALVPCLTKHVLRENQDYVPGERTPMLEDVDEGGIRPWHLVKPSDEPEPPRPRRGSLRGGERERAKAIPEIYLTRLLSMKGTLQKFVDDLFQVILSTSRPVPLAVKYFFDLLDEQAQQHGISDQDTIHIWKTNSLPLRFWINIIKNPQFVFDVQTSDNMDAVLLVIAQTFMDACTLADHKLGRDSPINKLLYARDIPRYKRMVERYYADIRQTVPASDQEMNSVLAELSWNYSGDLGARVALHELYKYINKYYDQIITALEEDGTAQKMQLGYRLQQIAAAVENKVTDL
Method: (§1) Cells were washed and then lysed. Plexin B1 levels were analyzed from lysates (30 μg) by polyacrylamide gel electrophoresis (PAGE). Western Blots were probed with anti-Plexin B1 and anti-phospho-Shc. Blots were re-probed with anti-vinculin and anti-Shc as loading control. DU145 cells were transfected with scramble siRNA, Plexin B1siRNA1 or PlexinB1 siRNA2 (10 nM) using RNAiMax™ reagent as directed by the manufacturer, (Invitrogen™, Missisauga, Ontario). Following 72 hours incubation the cells were replated at 20,000 cells/well in a 96-well flat bottom plate and let adhere for 4 hours. The remaining cells were lysed and assayed for PlexinB1 expression by Western Blot. The blot was reprobed with vinculin as loading control. Medium was replaced with DMEM without serum for 16 hours prior to the binding assay. […]
(§2) The binding assay was performed as previously described by […], J G. and LEDER, P. (1990), endogenous phosphatase heat inactivation was done in HBHA at 65° C. following the fixation step. Plate readings at 562 nm were taken initially and then every 24 hours. […]
(§3) DU145 cells transfected with scramble siRNA or, two distinct siRNAs targeting Plexin B1. […] AP-Sema3C binding to DU145 cells that were transfected with scramble or Plexin B1 siRNAs, where the mean and SEM AP-Sema3C binding performed was calculated in quadruplicate.

PLEXIN B1 [2] = biological target: T1, PLEXIN B1; assay: alkaline phosphatase ligand binding assay on DU145 cells transfected with Plexin B1 siRNA B1 siRNA2 against scramble siRNA; APTag background subtracted
Method: as §1, §2, §3

| Molecule | level of staining at 100 nM (DU145 cells) [%] | fold reduction of binding on Plexin B1 knockdown against scramble siRNA (PLEXIN B1 [1]) [fold] | fold reduction of binding on Plexin B1 knockdown against scramble siRNA (PLEXIN B1 [2]) [fold] |
| --- | --- | --- | --- |
| Recombinant human IgGFc | 6.01 |  |  |
| B1 |  | 2.4 | 1.9 |
